Source: article PMC7105484, “Crystal structures of REF6 and its complex with DNA reveal diverse recognition mechanisms” (Cell Discovery, 2020)

Tests used:
REF6 W1311A = biological target: T1, REF6 W1311A (Arabidopsis thaliana, UniProt Q9STM3 1223-1360, W1311A); assay: MST and EMSA; marked abrogation; MST: 20 mM HEPES pH 7.3, 150 mM NaCl, 0.2 mM TCEP, 0.5% CA-630, 25 C; EMSA: 30 uM protein, 10 uM dsDNA, 20 mM Tris pH 8.0, 100 mM NaCl, 2.5 mM MgCl2, 0.1% CA-630, 10% glycerol, 1 uM ZnSO4, 1 mM DTT, 4 C; conditions: protein: recombinant; tags: His6-MBP or GST, TEV-cleavable; label: FAM in MST; none in crystal and EMSA; 5' overhang 1 nt on both strands, 15 bp
T1 sequence: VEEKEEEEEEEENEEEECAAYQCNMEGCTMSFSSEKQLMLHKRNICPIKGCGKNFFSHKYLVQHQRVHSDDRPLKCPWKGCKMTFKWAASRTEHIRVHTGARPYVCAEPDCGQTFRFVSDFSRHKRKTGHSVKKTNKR

REF6 S1341W = biological target: T2, REF6 S1341W (Arabidopsis thaliana, UniProt Q9STM3 1223-1360, S1341W); assay: as above; conditions: protein: recombinant; tags: His6-MBP or GST, TEV-cleavable; label: FAM in MST; none in crystal and EMSA; 5' overhang 1 nt on both strands, 15 bp
T2 sequence: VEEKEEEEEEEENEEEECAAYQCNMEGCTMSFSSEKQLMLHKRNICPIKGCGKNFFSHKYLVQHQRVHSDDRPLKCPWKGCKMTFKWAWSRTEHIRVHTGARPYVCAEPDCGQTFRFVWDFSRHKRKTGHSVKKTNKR

REF6 ZnF1-4 WT = biological target: T3, REF6 ZnF1-4 WT (Arabidopsis thaliana, UniProt Q9STM3 1223-1360); assay: MST; MST: 20 mM HEPES pH 7.3, 150 mM NaCl, 0.2 mM TCEP, 0.5% CA-630, 25 C; EMSA: 30 uM protein, 10 uM dsDNA, 20 mM Tris pH 8.0, 100 mM NaCl, 2.5 mM MgCl2, 0.1% CA-630, 10% glycerol, 1 uM ZnSO4, 1 mM DTT, 4 C; conditions: protein: recombinant; tags: His6-MBP or GST tag, TEV-cleavable (cleaved when necessary); label: FAM in MST; none in crystal and EMSA; 5' overhang 1 nt on both strands, 15 bp
T3 sequence: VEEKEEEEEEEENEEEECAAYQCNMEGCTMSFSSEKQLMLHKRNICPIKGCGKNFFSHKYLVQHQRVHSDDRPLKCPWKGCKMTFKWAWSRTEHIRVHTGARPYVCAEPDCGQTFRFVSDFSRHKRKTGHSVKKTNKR

REF6 W1309A = biological target: T4, REF6 W1309A (Arabidopsis thaliana, UniProt Q9STM3 1223-1360, W1309A); assay: as above; conditions: protein: recombinant; tags: His6-MBP or GST, TEV-cleavable; label: FAM in MST; none in crystal and EMSA; 5' overhang 1 nt on both strands, 15 bp
T4 sequence: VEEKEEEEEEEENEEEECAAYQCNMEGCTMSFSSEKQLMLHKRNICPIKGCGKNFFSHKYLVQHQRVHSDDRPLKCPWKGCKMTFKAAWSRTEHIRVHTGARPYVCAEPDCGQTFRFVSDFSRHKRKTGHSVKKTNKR

REF6 V1340A = biological target: T5, REF6 V1340A (Arabidopsis thaliana, UniProt Q9STM3 1223-1360, V1340A); assay: as above; conditions: protein: recombinant; tags: His6-MBP or GST, TEV-cleavable; label: FAM in MST; none in crystal and EMSA; 5' overhang 1 nt on both strands, 15 bp
T5 sequence: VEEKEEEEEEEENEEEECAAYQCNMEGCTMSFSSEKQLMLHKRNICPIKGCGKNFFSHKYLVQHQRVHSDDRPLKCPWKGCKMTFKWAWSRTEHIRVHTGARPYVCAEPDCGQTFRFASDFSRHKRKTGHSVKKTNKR

REF6 D1342A = biological target: T6, REF6 D1342A (Arabidopsis thaliana, UniProt Q9STM3 1223-1360, D1342A); assay: as above; conditions: protein: recombinant; tags: His6-MBP or GST, TEV-cleavable; label: FAM in MST; none in crystal and EMSA; 5' overhang 1 nt on both strands, 15 bp
T6 sequence: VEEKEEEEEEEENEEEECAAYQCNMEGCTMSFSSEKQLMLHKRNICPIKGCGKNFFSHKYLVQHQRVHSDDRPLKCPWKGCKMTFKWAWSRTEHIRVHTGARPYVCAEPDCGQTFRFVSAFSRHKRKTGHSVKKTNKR

REF6 K1281A = biological target: T7, REF6 K1281A (Arabidopsis thaliana, UniProt Q9STM3 1223-1360, K1281A); assay: as above; conditions: protein: recombinant; tags: His6-MBP or GST, TEV-cleavable; label: FAM in MST; none in crystal and EMSA; 5' overhang 1 nt on both strands, 15 bp
T7 sequence: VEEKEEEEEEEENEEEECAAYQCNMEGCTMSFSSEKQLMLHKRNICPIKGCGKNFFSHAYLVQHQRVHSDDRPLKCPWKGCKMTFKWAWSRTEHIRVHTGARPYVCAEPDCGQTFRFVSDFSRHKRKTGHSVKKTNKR

B1: NAC004 m5 (dsDNA)
DNA 1: CTTTCTCTGTTTTGTC
DNA 2: GGACAAAACAGAGAAA
binding result (REF6 W1311A): no binding
binding result (REF6 S1341W): no binding
Kd (REF6 ZnF1-4 WT): 400 nM
Kd (REF6 W1309A): 58500 nM
Kd (REF6 V1340A): 500 nM
Kd (REF6 D1342A): 1300 nM
Kd (REF6 K1281A): 1300 nM
